Assay: label from the status in PepcDB records
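Further: failed if final PepcDB status was selected cloned or expressed and not failed if soluble or beyond.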

Sequence	protein production
MTNTTYVQEYHAIVEVLSKYNEGGKKADSTIMRPAFSSQATIFGVDVDNKLTGGPIQGLFDVIDNVFHPSPEAKAAIARIDIVGTAASARIDTDDISGFRFTDFFNLLKVEGKWTVVSKIYHTHPSA	not failed
MAWRVGIAPLMTPSTPLWPGREPVYRSAALSSMEPGRPRGQQGTELGMPAGAPLRRGIGGGPGLDVRRRDLGAVAAAHQHAILGPAQVGDAHGEPDPDRGQRDGEGERGDVGEHAVAEIVRLGARLLVARQVERLGRAAHRLHGAVAPVDRRGGGGARPELEHPVLLIRAYGPLGFHGARITPKQRFLIAYVVNALQKIFSTRTCIALLHDLFAKARDSGRHAGVRMRGVALQNSHGTCRARSREHRLVISLCAPNAFCRRKAHGIIMEPGPPVATNNVRGSSTMTTNAREPRVHPVPILSLRPTQMTVGMREVKEKRKRWREHDSKKQADLLGKHMIPVVYGPDKRYYVIDHHHLGRALHDEGVKEVLVTVVGDLRMVEREAFWGVMDNKRWVYPYDSKGERRPFRDLPKSVADLRDDPFRSLAGELRRLGGFAKDTTPFSEFLWADYLRRKLSRKAVDANFDKALEKALSAAKSKDAIYLPGWCGPADDD	failed
MELLRPEATVLSLGRRVLSFDREGRPYHYFREGKTYKRALDGSLHLRYREGERRRRRLAPEEALGVYQEVLDLAEAHLRDERRREEVLRWTPEGLLDPTPYRRAYAWPVSILPPDAYLSVVLQATTGCTWNRCAFCSFYQDRPFQKRTPEAFREHIQAVLALLGRGRLLRRGVFLADGNALALSEPLLPLLELVRAHFPGEPVMGFLDLFTGLKKAPSWWERLGGMGLRRVYIGLETGHAPLLALLRKPGHPKEVLPLVRALKAAGLSVGVILMVGAGGKAFAEAHFRESLALLAELPLGRGDVVYLSPFREDPGTPYAALGLAPLEDLEGELQRWAQAVRRLGLRASRYEIREFLY	failed
MKTTPDILDQIRVHGADAYPEEGCGFLLGTVTDDGDNRVAALHRATNRRSEQRTRRYELTADDYRAADAAAQEQGLDVVGVYHSHPDHPARPSATDLEEATFPGFTYVIVSVRDGAPEALTAWALAPDRSEFHREDIVRPDPEAPLEHHHHHH	failed
AVEARQSATEAERRRHRLEQILKTVPSCVVQLDRDGQFVFANQRAIDVLGLSQSELKDRLYNDPEWEIRDLDGHPIPDAELPFRQVLETGQPLSDARHTIHWPDGTEKVLSVNGAPLFDDDGAVESVVCTLTDIT	not failed
MTAQPLLVFDFDGVIVDGMAEYWWSAWMAAQRLNAEPQGLGSDAVPQGFRRLRPWVHHGWEMVLLAAEMPQLDPERWVVDYATEQDMALQRRGWSASLLQEALDQTRQQAVSSDRAAWLGLHQPFPGLVDRLQAFQEEGVDWAVLTTKTAAFTAELLESLGLRPWRLDGREAGPKPEVLLRLQRERVLAGFVEDRRATLETVRDTDGLQSLPCWLASWGYLKPSDREDLPRGIQLIDQDRLATPLAQWP	failed
MSYQPTSLTVASYNLRNANGSDSARGDGWGQRYPVIAQMVQYHDFDIFGTQECFLHQLKDMKEALPGYDYIGVGRDDGKDKGEHSAIFYRTDKFDIVEKGDFWLSETPDVPSKGWDAVLPRICSWGHFKCKDTGFEFLFFNLHMDHIGKKARVESAFLVQEKMKELGRGKNLPAILTGDFNVDQTHQSYDAFVSKGVLCDSYEKCDYRYALNGTFNNFDPNSFTESRIDHIFVSPSFHVKRYGVLTDTYRSVRENSKKEDVRDCPEEITIKAYEARTPSDHFPVKVELVFDLEHHHHHH	not failed
MEQIITDFISKWGYTAIFILILLENVLPVVPSEIILTFAGLLSVKSHLSIWTLLIIATIASFIGLLILYYICRLISEEKLYRFVDRHGKWMKLKSKDLKRANDWFKKYGAWAVFLCRFVPVLRVLITIPAGINRMNVIQFTTLSLIGTTIWNFALILLGRLLSDSFDALMNGIHTYSRIMYVIIIIAVIYFVIRYLMKRRRSVK	failed
MRGGGILDYIGYFLVAIIVIFVVVKLLEWPIKMLVKLIINGVIGAIMLFALNIFGKYIGISIGINIVTALIAGIFGIPGVIFLVILKFIM	failed
GSAYTPLSEDESHRIFELVKEIDTSNQDASKSEKILQQRLDLLHQVRLRYFTPREVARLMSFPENFEFPPETTNRQKYRLLGNSINVKVVGELIKLLTIK	failed
MQHYFYYIHSKHITPCFIFVDDVLSCLQRLNYQHLPAVSWSCFVSDQIIARVSQSLAKEQSLESLVRQLLEMLEMVTDMESTYLTKVDVEARLQHIMFARNSQKMHIPENFTVSWDYSLCKRAIDENCFFSDEVPDRWGDCIAARNLGITTFLSTPIHLPDGSFYGTLCAASSEKRQWSERAEQVLQLFAGLIAQYIQKEALVEQLREANAALIAQSYTDSLTGLPNRRAIFENLTTLFSLARHLNHKIMIAFIDLDNFKLINDRFGHNSGDLFLIQVGERLNTLQQNGEVIGRLGGDEFLVVSLNNENADISSLRERIQQQIRGEYHLGDVDLYYPGASLGIVEVDPETTDADSALHAADIAMYQEKKHKQKTPFVTHSALHS	failed
MNQAAQQSAPSRLRDRTLAAFTLMVSQPALAAIAALAALYALLAVVGGILTFSPVPFWDMWDGGLGFYVRQMTDVSQWWAQHNEHRIVLSRILFFLDYRYFDSNGAVLVVINYLLACSTFGLLAWCALQRDASRRRDGRMIAAFILCCALLWTQSNNLTWAFQSQFFLANLLPLLALVLLHASCRTRIRGNAIVFLAALTVAAMAAVSMANGVLAGGVVAAACLLGRQSWRRNLLAWAVAIAVPALYFHHYTAPAGHGSILASLRTEPLEVIKFFFAYIGSPFAHLDASGPLHLGWAILAGVVLLTAGAILAWRTIFKRHDTVDVDLVVTLFLGYLVASAFATAGSRALFGLDAAVASRYTTPGLLVLGCVLILASRNFFRDRALTMPYQIGLALMALAFLPSQLTATRPQPYLDFEWRFAALALELGVKDDKQIGWIFPDAAWAQKIAEPAANMGLGIFAKPGIYDAKLTLGGSYPTSSLQTCSLAGLENEAVDASTNDWIRLKGGLMNSILPRKISTVLLVDANNTIVGRGLLAEPKQDSPGAPFGAPFKAYLMGRAQPAVYKIVIPGFCTTTVAPKSQ	failed
MSELIKHSSNFLAAISPDNDCSITATNDFEAMMSWLNGYKKKPINTSRNYAREVKRYLIWLSCQGLTLAQVKIEDVYEYFNLLERPTTEWIIPDKKTDKIYPTQLIKYGGLSNRSINYTHTVLGLFYSFLQDAGYLTKNPINLVKKASATTESEQYRHLDLPAWQTLWTWILGYENRVITEDQPAKMIKKASRYRWVFALLYHSGIRCAEAANALMSDLVRKNNTWSLKVTGKGNKMRLVTVNSLLLKELIHYRRSLLLTDYPSSHDDTPLIVSIQKNRQGSMTTRTLSSLIKEVTELVCADCQDDQITRQIETMTTHWLRHTNATHRFMAGASLETTQDELGHADPRTTRIYAKTSNEKRKLDAERLADLFDGIG	failed
MLNADVKETIHYVDENGKELAGTYTKDVHYTRTATVHYDQNGNATVTYGEWKADGSFDKVANPDIDGYFTLDKGVDGKTVTDPQNQADFVENVIYYKTDQNVTPLEHHHHHH	not failed
MNINENASQYIPHEAPMVFVDDLIEIFDQGALASLTIRPELLFCTAQGLPSWTSIELMAQTISAYSGRNGRQRGHTPRIGFLLGTRKLNLPVAFFELGSTLIIRIEQQYLHEGLGQFACEIEYQAHKISALLSVYEPTVDQDNKENT	failed
MRAAFRTLGCKVNQVETEALLGFLKALEPEVVPLEAGGADLVVINSCAVTTTAEADTRKEVRRARRYNPHAFIVVTGCYAELAPEVLKELGADAVVPNARKAELPRVILERFGLPSDPITTPPNEFWGAGERGLLNSRVRAFLKVQDGCQAGCAYCIIPRLRGKERHRDHREALAEAEALLRMGIKEIVLTGVRLGSYKGHPRGLAGLVEDLYHLGAKVRLSSIEPEDTGEDLLKVIGRYAPEVRPHLHLSLQTGSDRLLKLMGRRYDKAYYRELVQRAYDLIPGFALTTDVIAGLPTETEEEHRETLAFLEELRPTRVHAFTYTPRPKTRAASMPQVPPEVRKRRTKELIALAQRLAEERIRPRLGERVEVLVERVQGGEALGHTPDYYEARLEGEARPGETVWARVHGVEGYVLLGRVEGVKEGARGPLELPVRLEHHHHHH	failed
SSHQPLSCLTEKEDSPSESTGNGPPHLAHPNLDTFTPEELLQQMKELLTENHQLKEAMKLNNQAMKGRFEELSAWTEKQKEERQFFEIQSKEAKERLMALSHENEKLKEELGKLKGKSERSSEDPTDDSRLPRAEAEQEKDQLRTQVVRLQAEKADLLGIVSELQLKLNSSGSSEDSFVEIRMAEGEAEGSVKEIKHSPGPTRTVSTGTSRSADGAKNYFEHEELTVSQLLLCLREGNQKVERLEVALKEAKERVSDFEKKTSNRSEIETQTEGSTEKENDEEKGPETVGSEVEALNLQVTSLFKELQEAHTKLSEAELMKKRLQEKCQALERKNSAIPSELNEKQELVYTNKKLELQVESMLSEIKMEQAKTEDEKSKLTVLQMTHNKLLQEHNNALKTIEELTRKESEKVDRAVLKELSEKLELAEKALASKQLQMDEMKQTIAKQEEDLETMTILRAQMEVYCSDFHAERAAREKIHEEKEQLALQLAVLLKENDAFEDGGRQSLMEMQSRHGARTSDSDQQAYLVQRGAEDRDWRQQRNIPIHSCPKCGEVLPDIDTLQIHVMDCII	failed
MGEIRNYIKLILIGVAILVTVTMIISATGCDILPPPASAIKPPQYINASSGEVEDPKAIARRFLTPGTYFSYPTHPRNADAVWEVDIDGDGRAELLTLYRGRDLKNNGVEVFGVFILKQDENHEWQIFWEQQYTANIVALDWADVRDITGDNYPELLIGWNIGYRIGSNLDIYSLKEEDKPRLISSIKYSEIVGIEDRRGINNEIKPVLMMYLFDEEMYESENEGRKDEYFHILQWDYKEWMGGGLVEADDFYASYYVNVIEDLKESLERYSNNYYQWYILALAQLRSGKPMDALESVGKVLEITQRYINRHGERTVKEVFKYQKKARILKAAAYIKMGKYHESIIESNYVLGNYDIDDKELAQIYLNLGYAYAGLKQYEMAGTYFNKSCETAETVYKEGTALYLLNSYKAKKQLEYIKPFLTSSH	failed
MSLSYRIDVLLFNKFETLDVFGPVEIFGNLQDDFELNFISSDGGLVESSQKVRVETSLYTRDENIEKILFVPGGSGTREKVNDDNFINFIGNMVKESKYIISVCTGSALLSKAGILNGKRATTNKRSFKWVTEQNEDVLWVKEARWVKDGNIYTSSGVSAGIDMTLGFIEDLIGKEKALEISRSIEYFWNEDSNYDPFSKIYGEGHHHHHH	not failed
MNSPETTWTEENSSCALHLHWYALCERKDLVANSGVVAWLDGKQLALFYLPDTAQGEQLFAIDNRDPKSGANVIGRGLTGQIAGELVIASPLYKQHFRLHDGSCIEYPEQRLEVWPVRLNGERVEIAV	failed
MMKNFVCTTCGVQYAASVEEPVSCHICDEERQYVNPKGQSWTTLENLQTDDTYKNEIIKEENGLYSITTKPGFAIGQTAFVVKTESYRLLWDCITYLDETTITKIKELGGLDAIALSHPHYYSTQVEWAETFDVPIYIHEDDKEWVMRPSSRIIYWSGESLQLADGITVHRLGGHFSGGSVLHWEEGNDGKGILLTGDIIQVVADERWVSFMYSYPNLIPLPARKVEEMVNRVKPLQFNRLYNAFHRVVKENANEAVERSAERYIKAIEGKLFHT	failed
MEEKRRRARVQGAWAAPVKSQAIAQPATTAKSHLHQKPGQTWKNKEHHLSDREFVFKEPQQVVRRAPEPRVIDREGVYEISLSPTGVSRVCLYPGFVDVKEADWILEQLCQDVPWKQRTGIREDITYQQPRLTAWYGELPYTYSRITMEPNPHWHPVLRTLKNRIEENTGHTFNSLLCNLYRNEKDSVDWHSDDEPSLGRCPIIASLSFGATRTFEMRKKPPPEENGEYTYVERVKIPLDHGTLLIMEGATQADWQHRVPKEYHSREPRVNLTFRTVYPDPRGAPW	failed
